# Measured values: article PMC9108626, “Mammalian UPF3A and UPF3B can activate nonsense‐mediated mRNA decay independently of their exon junction complex binding” (The EMBO Journal, 2022)
# What was measured:
# Settings in all cases: partners not purified
# [1] = target: T1, EIF4A3 (endogenous, HCT116) (human (endogenous in HCT116), UniProt P38919 1-411); test: co-IP; EIF4A3-IP from 3^DKO#2 HCT116 cells stably expressing FLAG-tagged UPF3 proteins, UPF3A chimeras or EGFP; FLAG-tagged proteins quantified against EIF4A3; immunoblot
# T1 construct: EIF4A3, human, core factor of the exon junction complex, endogenous in HCT116 cells; also called core EJC factor EIF4A3; source: endogenous, HCT116 lysate
# [2] = target: T2, EIF4A3 (endogenous, HeLa Tet‐off) (human (endogenous in HeLa), UniProt P38919 1-411); test: co-IP; EIF4A3-IP (IgG-IP as control) from HeLa Tet-off cells and 3B^KO#3 HeLa Tet-off cells, with overexpression of CASC3 wild type or the HDAA mutant; immunoblot
# T2 construct: EIF4A3, human, endogenous in HeLa Tet-off cells; also called EJC; source: endogenous, lysate of HeLa Tet-off and 3B^KO#3 HeLa Tet-off cells
# [3] = target: T1, EIF4A3 (endogenous, HCT116); test: co-IP; EIF4A3-IP (antibody on protein-A Dynabeads; normal rabbit IgG as control) from WT and UPF3B mutant (3B^Δ2BD, 3B^KO) HCT116 lysates; 4°C, washes with 150 mM NaCl; immunoblot
# T1 sequence (P38919 whole entry): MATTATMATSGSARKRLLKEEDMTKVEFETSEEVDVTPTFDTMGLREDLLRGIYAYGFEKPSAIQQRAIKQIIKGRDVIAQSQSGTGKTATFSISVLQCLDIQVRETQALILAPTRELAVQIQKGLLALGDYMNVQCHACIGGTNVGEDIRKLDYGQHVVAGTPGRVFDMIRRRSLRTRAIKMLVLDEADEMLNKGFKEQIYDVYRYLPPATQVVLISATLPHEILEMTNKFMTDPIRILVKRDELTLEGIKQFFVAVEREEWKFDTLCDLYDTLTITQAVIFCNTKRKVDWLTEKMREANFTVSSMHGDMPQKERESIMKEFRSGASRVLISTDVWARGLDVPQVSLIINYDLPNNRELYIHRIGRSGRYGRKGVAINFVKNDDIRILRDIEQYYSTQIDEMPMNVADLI
# T2 sequence (P38919 whole entry): as above
Binder,fold increase of co-IP upon overexpression of wild-type CASC3 [2],also measured
"FLAG‐tagged human UPF3A (stably expressed in 3^DKO#2 cells) (natural protein, UniProt Q9H1J1 1-476, looked up, UPF3A, human, CCDS9543.1; wild type; domains are defined over residues 2-476; cloned in pcDNA3ez-FLAG and moved to a Tet-ON PiggyBac plasmid; also called hUPF3A; FLAG‐UPF3A) MRSEKEGAGGLRAAVAARGPSGREKLSALEVQFHRDSQQQEAETPPTSSSGCGGGAGKPREEKRTALSKVVIRRLPPGLTKEQLEEQLRPLPAHDYFEFFAADLSLYPHLYSRAYINFRNPDDILLFRDRFDGYIFLDSKGLEYPAVVEFAPFQKIAKKKLRKKDAKTGSIEDDPEYKKFLETYCVEEEKTSANPETLLGEMEAKTRELIARRTTPLLEYIKNRKLEKQRIREEKREERRRRELEKKRLREEEKRRRREEERCKKKETDKQKKIAEKEVRIKLLKKPEKGEEPTTEKPKERGEEIDTGGGKQESCAPGAVVKARPMEGSLEEPQETSHSGSDKEHRDVERSQEQESEAQRYHVDDGRRHRAHHEPERLSRRSEDEQRWGKGPGQDRGKKGSQDSGAPGEAMERLGRAQRCDDSPAPRKERLANKDRPALQLYDPGARFRARECGGNRRICKAEGSGTGPEKREEAE",,fold weaker co-IP against UPF3B [1]: ~3 fold
"UPF3A (endogenous, UPF3B knockout HeLa Tet‐off) (natural protein, human (endogenous in HeLa), UniProt Q9H1J1 1-476, looked up, UPF3A, human, endogenous in HeLa Tet-off cells; source: endogenous, 3B^KO#3 HeLa Tet-off lysate) MRSEKEGAGGLRAAVAARGPSGREKLSALEVQFHRDSQQQEAETPPTSSSGCGGGAGKPREEKRTALSKVVIRRLPPGLTKEQLEEQLRPLPAHDYFEFFAADLSLYPHLYSRAYINFRNPDDILLFRDRFDGYIFLDSKGLEYPAVVEFAPFQKIAKKKLRKKDAKTGSIEDDPEYKKFLETYCVEEEKTSANPETLLGEMEAKTRELIARRTTPLLEYIKNRKLEKQRIREEKREERRRRELEKKRLREEEKRRRREEERCKKKETDKQKKIAEKEVRIKLLKKPEKGEEPTTEKPKERGEEIDTGGGKQESCAPGAVVKARPMEGSLEEPQETSHSGSDKEHRDVERSQEQESEAQRYHVDDGRRHRAHHEPERLSRRSEDEQRWGKGPGQDRGKKGSQDSGAPGEAMERLGRAQRCDDSPAPRKERLANKDRPALQLYDPGARFRARECGGNRRICKAEGSGTGPEKREEAE",3 fold,
"UPF3A (endogenous, HCT116) (natural protein, human (endogenous in HCT116), UniProt Q9H1J1 1-476, looked up, UPF3A, human, endogenous in HCT116 cells; source: endogenous, HCT116 lysate (WT, 3B^Δ2BD, 3B^KO cells)) MRSEKEGAGGLRAAVAARGPSGREKLSALEVQFHRDSQQQEAETPPTSSSGCGGGAGKPREEKRTALSKVVIRRLPPGLTKEQLEEQLRPLPAHDYFEFFAADLSLYPHLYSRAYINFRNPDDILLFRDRFDGYIFLDSKGLEYPAVVEFAPFQKIAKKKLRKKDAKTGSIEDDPEYKKFLETYCVEEEKTSANPETLLGEMEAKTRELIARRTTPLLEYIKNRKLEKQRIREEKREERRRRELEKKRLREEEKRRRREEERCKKKETDKQKKIAEKEVRIKLLKKPEKGEEPTTEKPKERGEEIDTGGGKQESCAPGAVVKARPMEGSLEEPQETSHSGSDKEHRDVERSQEQESEAQRYHVDDGRRHRAHHEPERLSRRSEDEQRWGKGPGQDRGKKGSQDSGAPGEAMERLGRAQRCDDSPAPRKERLANKDRPALQLYDPGARFRARECGGNRRICKAEGSGTGPEKREEAE",,fold increase of co-IP in UPF3B mutant cells over WT cells [3]: ~2 fold
"UPF3B (endogenous, HeLa Tet‐off) (natural protein, human (endogenous in HeLa), UniProt Q9BZI7 1-483, looked up, UPF3B, human, endogenous in HeLa Tet-off cells; source: endogenous, HeLa Tet-off lysate) MKEEKEHRPKEKRVTLLTPAGATGSGGGTSGDSSKGEDKQDRNKEKKEALSKVVIRRLPPTLTKEQLQEHLQPMPEHDYFEFFSNDTSLYPHMYARAYINFKNQEDIILFRDRFDGYVFLDNKGQEYPAIVEFAPFQKAAKKKTKKRDTKVGTIDDDPEYRKFLESYATDNEKMTSTPETLLEEIEAKNRELIAKKTTPLLSFLKNKQRMREEKREERRRREIERKRQREEERRKWKEEEKRKRKDIEKLKKIDRIPERDKLKDEPKIKVHRFLLQAVNQKNLLKKPEKGDEKELDKREKAKKLDKENLSDERASGQSCTLPKRSDSELKDEKPKRPEDESGRDYREREREYERDQERILRERERLKRQEEERRRQKERYEKEKTFKRKEEEMKKEKDTLRDKGKKAESTESIGSSEKTEKKEEVVKRDRIRNKDRPAMQLYQPGARSRNRLCPPDDSTKSGDSAAERKQESGISHRKEGGEE",2.6 fold,
